The series concerns the molecule itself. Description: SEC-MALS.

B1: VopL fragment 130-484 (3W-VCD) (domain or fragment, Vibrio parahaemolyticus, UniProt Q87GE5 130-484, looked up)
chain: SVNEDHSKLMEQIRQGVKLKSATKSLSADKSSADAHSKLMEELLTGGRKLKKVATSDIPAPPPLPSASTSKSPDSRNALLSEIAGFSKDRLRKTGSLETLNSSQSKDKESFEPTTHERLLSEDLFKQSPKLSEQELDELANNLADYLFQAADIDWHQVISEKTRGLTTEEMAKSEHRYVQAFCREILKYPDCYKSADVASPESPKSGGGSVIDVALKRLQTGRERLFTTTDEKGNRELKKGDAILESAINAARMAISTEEKNTILSNNVKSATFEVFCELPCMDGFAEQNGKTAFYALRAGFYSAFKNTDTAKQDITKFMKDNLQAGFSGYSYQGLTNRVAQLEAQLAALSAKLS
On to B1, for which the “stoichiometry N” value amounted to 2.

Usually stoichiometry N stands for the number of molecules, sites or subunits per partner or assembly.
